Test results reported in patent publication US20220064221A1, “BICYCLIC PEPTIDE LIGANDS SPECIFIC FOR INTEGRIN ALPHA-V-BETA-3” (BicycleTx Limited, priority 2019, published 2022).
Starred links: 1 amine or outer side, 2 acyl side, 3 side chain; linkers in the order of their positions; H or OH if unused. Positions of bridges follow the written chain, without caps; N, C: chain ends. Non-standard residues stand in square brackets, D forms with d. No end group written: not given here. *: point of attachment. FITC = O=C1OC2(c3ccc(O)cc3Oc3cc(O)ccc32)c2ccc(NC(=S)*)cc21; TATA = O=C(CC[*:1])N1CN(C(=O)CC[*:2])CN(C(=O)CC[*:3])C1; Ahx = NCCCCCC(=O)O; Fl = fluorescein; Sar = CNCC(=O)O

Key:
integrin αvβ3 [1] = biological target: integrin αvβ3 (Homo sapiens, UniProt P05106+P06756); test: Human FP direct binding assay; conditions: Table 3; fluorescently modified peptides; Integrin aVb3
integrin αvβ3 (Homo sapiens, UniProt P05106+P06756), sequence (P06756 31-889 limits assumed): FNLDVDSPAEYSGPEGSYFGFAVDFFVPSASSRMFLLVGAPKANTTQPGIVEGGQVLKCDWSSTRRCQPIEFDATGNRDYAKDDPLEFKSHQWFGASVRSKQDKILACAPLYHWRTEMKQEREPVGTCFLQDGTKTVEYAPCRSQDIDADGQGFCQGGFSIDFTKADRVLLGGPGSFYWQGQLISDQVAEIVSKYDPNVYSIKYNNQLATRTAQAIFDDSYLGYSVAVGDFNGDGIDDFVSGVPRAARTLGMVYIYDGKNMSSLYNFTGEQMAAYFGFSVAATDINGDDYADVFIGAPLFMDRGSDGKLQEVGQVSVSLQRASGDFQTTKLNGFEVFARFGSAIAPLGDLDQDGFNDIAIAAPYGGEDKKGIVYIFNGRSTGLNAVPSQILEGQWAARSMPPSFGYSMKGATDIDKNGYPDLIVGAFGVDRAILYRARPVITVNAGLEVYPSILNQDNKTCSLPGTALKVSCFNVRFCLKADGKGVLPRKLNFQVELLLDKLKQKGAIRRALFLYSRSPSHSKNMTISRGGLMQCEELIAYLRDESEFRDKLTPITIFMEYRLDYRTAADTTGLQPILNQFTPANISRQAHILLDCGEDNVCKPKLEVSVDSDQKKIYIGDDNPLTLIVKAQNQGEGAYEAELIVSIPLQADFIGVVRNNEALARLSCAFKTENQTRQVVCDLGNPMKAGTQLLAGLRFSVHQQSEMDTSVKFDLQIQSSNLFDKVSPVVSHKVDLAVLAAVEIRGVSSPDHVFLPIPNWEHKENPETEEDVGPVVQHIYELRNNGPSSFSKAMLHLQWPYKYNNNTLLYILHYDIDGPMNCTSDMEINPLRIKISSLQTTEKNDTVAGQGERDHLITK
integrin αvβ3 (Homo sapiens, UniProt P05106+P06756), sequence (P06756 891-1048 partner limits assumed): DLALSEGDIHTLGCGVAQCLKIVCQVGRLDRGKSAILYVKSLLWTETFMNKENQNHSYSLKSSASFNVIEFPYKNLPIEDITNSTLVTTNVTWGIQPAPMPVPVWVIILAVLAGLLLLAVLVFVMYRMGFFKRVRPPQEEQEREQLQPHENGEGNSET
integrin αvβ3 (Homo sapiens, UniProt P05106+P06756), sequence (P05106 27-788): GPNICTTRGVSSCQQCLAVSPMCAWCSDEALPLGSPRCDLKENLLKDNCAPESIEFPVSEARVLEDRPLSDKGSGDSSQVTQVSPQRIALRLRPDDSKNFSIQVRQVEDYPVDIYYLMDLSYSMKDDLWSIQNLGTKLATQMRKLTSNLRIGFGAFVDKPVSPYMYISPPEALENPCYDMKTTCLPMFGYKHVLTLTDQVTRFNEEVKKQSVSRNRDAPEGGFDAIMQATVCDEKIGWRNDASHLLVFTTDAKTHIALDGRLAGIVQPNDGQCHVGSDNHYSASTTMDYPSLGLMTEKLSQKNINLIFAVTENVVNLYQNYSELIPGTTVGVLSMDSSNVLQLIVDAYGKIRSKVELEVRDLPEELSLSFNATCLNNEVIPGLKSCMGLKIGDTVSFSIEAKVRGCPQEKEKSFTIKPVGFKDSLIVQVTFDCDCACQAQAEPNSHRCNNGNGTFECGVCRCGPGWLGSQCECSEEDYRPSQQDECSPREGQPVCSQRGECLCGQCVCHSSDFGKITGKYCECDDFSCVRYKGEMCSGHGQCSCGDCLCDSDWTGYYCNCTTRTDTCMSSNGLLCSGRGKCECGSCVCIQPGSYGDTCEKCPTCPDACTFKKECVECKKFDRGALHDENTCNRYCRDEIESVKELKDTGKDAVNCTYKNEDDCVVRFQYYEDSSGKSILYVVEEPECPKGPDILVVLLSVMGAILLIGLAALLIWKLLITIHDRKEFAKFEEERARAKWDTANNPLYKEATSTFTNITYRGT
Procedure: (§1) Affinity of selected fluorescently modified peptides of the invention for integrin αvβ3 (Kd) (and αvβ5 to test for selectivity) was determined using a human direct binding assay analogous to that described in Schottelius et al. (2009) Acc. Chem. Res. 42, 969-980.

integrin αvβ3 [2] = biological target: T1, integrin αvβ3 (human, UniProt P06756 31-992; P05106 27-718); test: Human FP Direct binding
T1 construct: also called Integrin aVb3
T1 sequence (P06756 31-992, chain 1 of 2): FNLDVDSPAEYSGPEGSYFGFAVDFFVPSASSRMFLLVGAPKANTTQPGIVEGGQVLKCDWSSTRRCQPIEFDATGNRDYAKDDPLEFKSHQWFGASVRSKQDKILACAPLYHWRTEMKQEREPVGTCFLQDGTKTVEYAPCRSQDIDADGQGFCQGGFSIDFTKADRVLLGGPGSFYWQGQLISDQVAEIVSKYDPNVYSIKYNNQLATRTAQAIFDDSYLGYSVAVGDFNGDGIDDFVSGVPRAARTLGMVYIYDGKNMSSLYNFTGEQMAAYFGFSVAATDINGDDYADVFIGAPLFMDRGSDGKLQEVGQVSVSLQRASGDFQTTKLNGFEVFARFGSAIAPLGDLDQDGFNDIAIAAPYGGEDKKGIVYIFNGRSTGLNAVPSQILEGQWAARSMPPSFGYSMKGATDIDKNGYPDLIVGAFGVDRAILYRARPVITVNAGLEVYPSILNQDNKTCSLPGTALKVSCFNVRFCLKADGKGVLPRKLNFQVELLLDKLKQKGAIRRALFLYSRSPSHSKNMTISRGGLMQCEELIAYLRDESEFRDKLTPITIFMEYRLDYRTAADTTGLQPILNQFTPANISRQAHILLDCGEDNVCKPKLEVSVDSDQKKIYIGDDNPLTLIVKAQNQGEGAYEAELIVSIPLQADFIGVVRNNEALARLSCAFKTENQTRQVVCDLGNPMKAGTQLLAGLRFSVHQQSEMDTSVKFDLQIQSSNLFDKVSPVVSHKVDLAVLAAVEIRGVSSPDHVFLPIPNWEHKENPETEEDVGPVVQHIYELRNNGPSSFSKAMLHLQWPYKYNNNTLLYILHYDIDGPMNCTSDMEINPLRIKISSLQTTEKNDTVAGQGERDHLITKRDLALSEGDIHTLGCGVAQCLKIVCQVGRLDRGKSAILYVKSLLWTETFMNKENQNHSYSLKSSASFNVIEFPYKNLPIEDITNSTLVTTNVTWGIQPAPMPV
T1 sequence (P05106 27-718, chain 2 of 2): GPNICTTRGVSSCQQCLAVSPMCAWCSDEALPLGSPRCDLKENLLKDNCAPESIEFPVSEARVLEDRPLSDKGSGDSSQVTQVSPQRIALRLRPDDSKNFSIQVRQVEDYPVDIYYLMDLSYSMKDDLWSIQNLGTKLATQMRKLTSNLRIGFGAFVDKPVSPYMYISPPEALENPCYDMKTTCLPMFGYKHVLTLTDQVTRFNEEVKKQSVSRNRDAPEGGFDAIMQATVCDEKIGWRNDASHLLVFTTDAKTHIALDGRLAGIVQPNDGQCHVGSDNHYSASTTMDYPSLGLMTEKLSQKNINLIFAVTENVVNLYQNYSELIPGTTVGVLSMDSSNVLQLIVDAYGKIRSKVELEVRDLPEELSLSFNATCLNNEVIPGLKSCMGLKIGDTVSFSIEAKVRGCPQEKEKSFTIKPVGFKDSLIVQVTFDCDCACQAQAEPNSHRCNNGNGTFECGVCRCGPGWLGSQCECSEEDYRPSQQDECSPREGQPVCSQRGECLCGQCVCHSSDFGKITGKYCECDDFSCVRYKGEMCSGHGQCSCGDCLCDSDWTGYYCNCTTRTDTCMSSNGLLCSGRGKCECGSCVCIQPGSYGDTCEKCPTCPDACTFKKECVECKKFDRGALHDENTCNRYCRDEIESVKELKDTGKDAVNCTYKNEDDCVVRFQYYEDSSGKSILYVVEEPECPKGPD
Procedure: as §1

Molecule: {FITC-Ahx}-GRGSSP [BCY7766]
- Kd (integrin αvβ3 [1]): 1.15 nM

B1: BCY7508 (peptide)
peptide: Ac-CPHIGRTDCPPCA[Sar][Sar][Sar][Sar][Sar][Sar]K(Fl)
modifications: linker 1-9-12 via TATA
- Kd (integrin αvβ3 [2]): 0.05 nM

B2: BCY7766 (peptide)
peptide: {FITC-Ahx}-GRGSSP
notes: also called FITC-Ahx-GRGSSP
- Kd (integrin αvβ3 [2]): 1.15 nM
